Test results published in FireProtDB (doi:10.1006/jmbi.2000.4053).
Several values for one entry are separate records, joined by “and”; a condition that tells them apart may be missing. Equal values may be shown once.

Conditions: Homo sapiens, pH 5, 25 °C, structure 1TEN
[1] = GdnHCl, Fluorescence, Sodium acetate 50mM, transition: 2

Tenascin, P24821 I833A
ddG of mutation (higher = less stable) [1]: 3.28 kcal/mol
denaturant m value [1]: 4.91 kcal/mol/M
denaturant midpoint (higher = more stable) [1]: 1.1 M
ddG of mutation (higher = less stable) (Urea, CD, Sodium acetate 50 mM): 3.28 kcal/mol
denaturant m value (Urea, CD, Sodium acetate 50 mM): 1.2 kcal/mol/M
denaturant midpoint (higher = more stable) (Urea, CD, Sodium acetate 50 mM): 2.63 M

Tenascin, P24821 I833V
ddG of mutation (higher = less stable) [1]: 0.5 kcal/mol
denaturant m value [1]: 1.8 kcal/mol/M
denaturant midpoint (higher = more stable) [1]: 1.4 M
ddG of mutation (higher = less stable) (Urea, CD, Sodium acetate 50 mM): 0.5 kcal/mol
denaturant m value (Urea, CD, Sodium acetate 50 mM): 1.1 kcal/mol/M
denaturant midpoint (higher = more stable) (Urea, CD, Sodium acetate 50 mM): 4.91 M

Tenascin, P24821 I849A
ddG of mutation (higher = less stable) [1]: 2.19 kcal/mol
denaturant m value [1]: 2.87 kcal/mol/M
denaturant midpoint (higher = more stable) [1]: 1.1 M
ddG of mutation (higher = less stable) (Urea, CD, Sodium acetate 50 mM): 2.19 kcal/mol
denaturant m value (Urea, CD, Sodium acetate 50 mM): 1.1 kcal/mol/M
denaturant midpoint (higher = more stable) (Urea, CD, Sodium acetate 50 mM): 3.52 M

Tenascin, P24821 I860A
ddG of mutation (higher = less stable) (Urea, CD, Sodium acetate 50 mM): 2.06 kcal/mol
denaturant m value (Urea, CD, Sodium acetate 50 mM): 1.3 kcal/mol/M
denaturant midpoint (higher = more stable) (Urea, CD, Sodium acetate 50 mM): 3.63 M

Tenascin, P24821 I860V
ddG of mutation (higher = less stable) [1]: 0.83 kcal/mol
denaturant m value [1]: 1.86 kcal/mol/M
denaturant midpoint (higher = more stable) [1]: 1.5 M
ddG of mutation (higher = less stable) (Urea, CD, Sodium acetate 50 mM): 0.83 kcal/mol
denaturant m value (Urea, CD, Sodium acetate 50 mM): 1.2 kcal/mol/M
denaturant midpoint (higher = more stable) (Urea, CD, Sodium acetate 50 mM): 4.64 M

Tenascin, P24821 L835A
ddG of mutation (higher = less stable) (Urea, CD, Sodium acetate 50 mM): 4.29 kcal/mol
denaturant m value (Urea, CD, Sodium acetate 50 mM): 1.4 kcal/mol/M
denaturant midpoint (higher = more stable) (Urea, CD, Sodium acetate 50 mM): 1.8 M

Tenascin, P24821 L851A
ddG of mutation (higher = less stable) [1]: 2.99 kcal/mol
denaturant m value [1]: 1.93 kcal/mol/M
denaturant midpoint (higher = more stable) [1]: 1.3 M
ddG of mutation (higher = less stable) (Urea, CD, Sodium acetate 50 mM): 2.99 kcal/mol
denaturant m value (Urea, CD, Sodium acetate 50 mM): 1.3 kcal/mol/M
denaturant midpoint (higher = more stable) (Urea, CD, Sodium acetate 50 mM): 2.87 M

Tenascin, P24821 L863A
ddG of mutation (higher = less stable) [1]: 4.22 kcal/mol
denaturant m value [1]: 4.55 kcal/mol/M
denaturant midpoint (higher = more stable) [1]: 1.2 M
ddG of mutation (higher = less stable) (Urea, CD, Sodium acetate 50 mM): 4.22 kcal/mol
denaturant m value (Urea, CD, Sodium acetate 50 mM): 1.5 kcal/mol/M
denaturant midpoint (higher = more stable) (Urea, CD, Sodium acetate 50 mM): 1.86 M

Tenascin, P24821 L873A
ddG of mutation (higher = less stable) (Urea, CD, Sodium acetate 50 mM): 3.06 kcal/mol
denaturant m value (Urea, CD, Sodium acetate 50 mM): 1.4 kcal/mol/M
denaturant midpoint (higher = more stable) (Urea, CD, Sodium acetate 50 mM): 2.81 M

Tenascin, P24821 P806A
ddG of mutation (higher = less stable) [1]: 2.74 kcal/mol
denaturant m value [1]: 2.98 kcal/mol/M
denaturant midpoint (higher = more stable) [1]: 1.3 M
ddG of mutation (higher = less stable) (Urea, CD, Sodium acetate 50 mM): 2.74 kcal/mol
denaturant m value (Urea, CD, Sodium acetate 50 mM): 1.1 kcal/mol/M
denaturant midpoint (higher = more stable) (Urea, CD, Sodium acetate 50 mM): 3.07 M

Tenascin, P24821 P826A
ddG of mutation (higher = less stable) (Urea, CD, Sodium acetate 50 mM): 1.73 kcal/mol
denaturant m value (Urea, CD, Sodium acetate 50 mM): 1 kcal/mol/M
denaturant midpoint (higher = more stable) (Urea, CD, Sodium acetate 50 mM): 3.9 M

Tenascin, P24821 P865A
ddG of mutation (higher = less stable) [1]: 0.93 kcal/mol
denaturant m value [1]: 4.32 kcal/mol/M
denaturant midpoint (higher = more stable) [1]: 1.2 M
ddG of mutation (higher = less stable) (Urea, CD, Sodium acetate 50 mM): 0.93 kcal/mol
denaturant m value (Urea, CD, Sodium acetate 50 mM): 1.2 kcal/mol/M
denaturant midpoint (higher = more stable) (Urea, CD, Sodium acetate 50 mM): 4.55 M

Tenascin, P24821 P884A
ddG of mutation (higher = less stable) (Urea, CD, Sodium acetate 50 mM): 0.11 kcal/mol
denaturant m value (Urea, CD, Sodium acetate 50 mM): 1.1 kcal/mol/M
denaturant midpoint (higher = more stable) (Urea, CD, Sodium acetate 50 mM): 5.23 M

Tenascin, P24821 S875A
ddG of mutation (higher = less stable) (Urea, CD, Sodium acetate 50 mM): -0.04 kcal/mol
denaturant m value (Urea, CD, Sodium acetate 50 mM): 1.1 kcal/mol/M
denaturant midpoint (higher = more stable) (Urea, CD, Sodium acetate 50 mM): 5.36 M

Tenascin, P24821 S882A
ddG of mutation (higher = less stable) [1]: 2.82 kcal/mol
denaturant m value [1]: 5.23 kcal/mol/M
denaturant midpoint (higher = more stable) [1]: 1.1 M

Tenascin, P24821 T867S
ddG of mutation (higher = less stable) (Urea, CD, Sodium acetate 50 mM): 1.22 kcal/mol
denaturant m value (Urea, CD, Sodium acetate 50 mM): 1.2 kcal/mol/M
denaturant midpoint (higher = more stable) (Urea, CD, Sodium acetate 50 mM): 4.32 M

Tenascin, P24821 V811A
ddG of mutation (higher = less stable) [1]: 1.36 kcal/mol
denaturant m value [1]: 3.03 kcal/mol/M
denaturant midpoint (higher = more stable) [1]: 1.3 M
ddG of mutation (higher = less stable) (Urea, CD, Sodium acetate 50 mM): 1.36 kcal/mol
denaturant m value (Urea, CD, Sodium acetate 50 mM): 1.2 kcal/mol/M
denaturant midpoint (higher = more stable) (Urea, CD, Sodium acetate 50 mM): 4.21 M

Tenascin, P24821 V871A
ddG of mutation (higher = less stable) (Urea, CD, Sodium acetate 50 mM): 2.81 kcal/mol
denaturant m value (Urea, CD, Sodium acetate 50 mM): 1.3 kcal/mol/M
denaturant midpoint (higher = more stable) (Urea, CD, Sodium acetate 50 mM): 3.01 M

Tenascin, P24821 Y837A
ddG of mutation (higher = less stable) (Urea, CD, Sodium acetate 50 mM): 4.22 kcal/mol
denaturant m value (Urea, CD, Sodium acetate 50 mM): 1.5 kcal/mol/M
denaturant midpoint (higher = more stable) (Urea, CD, Sodium acetate 50 mM): 1.86 M

Tenascin, P24821 Y858A
ddG of mutation (higher = less stable) [1]: 1.38 kcal/mol
denaturant midpoint (higher = more stable) [1]: 1.3 M
ddG of mutation (higher = less stable) (Urea, CD, Sodium acetate 50 mM): 1.38 kcal/mol
denaturant m value (Urea, CD, Sodium acetate 50 mM): 1.3 kcal/mol/M
denaturant midpoint (higher = more stable) (Urea, CD, Sodium acetate 50 mM): 4.19 M

Tenascin, P24821 Y858G
denaturant m value [1]: 4.19 kcal/mol/M
denaturant midpoint (higher = more stable) [1]: 1.3 M
ddG of mutation (higher = less stable) (Urea, CD, Sodium acetate 50 mM): 4.14 kcal/mol and 2.76 kcal/mol
denaturant m value (Urea, CD, Sodium acetate 50 mM): 1.3 kcal/mol/M
denaturant midpoint (higher = more stable) (Urea, CD, Sodium acetate 50 mM): 1.93 M

Tenascin, P24821 Y869F
ddG of mutation (higher = less stable) [1]: 3.13 kcal/mol
denaturant m value [1]: 3.01 kcal/mol/M
denaturant midpoint (higher = more stable) [1]: 1.3 M
ddG of mutation (higher = less stable) (Urea, CD, Sodium acetate 50 mM): 3.13 kcal/mol
denaturant m value (Urea, CD, Sodium acetate 50 mM): 1.3 kcal/mol/M
denaturant midpoint (higher = more stable) (Urea, CD, Sodium acetate 50 mM): 2.75 M
